Assay results taken from patent US20250333541A1, “ANTIBODY, AND DRUG CONJUGATE AND USE THEREOF” (EVOPOINT BIOSCIENCES CO., LTD., priority 2022, published 2025).
Changes are numbered by the printed parent chain.

T1: cynomolgus monkey TF-His (cynomolgus monkey, UniProt A0A2K5VX02 33-253)
T1 construct: range 33-252; Recombinant extracellular segment expressed in HEK293-EBNA cells and purified on a nickel column; also called c.TF-His; c; TF-his; not shown: His tag from vector pTT5-His
T1 sequence: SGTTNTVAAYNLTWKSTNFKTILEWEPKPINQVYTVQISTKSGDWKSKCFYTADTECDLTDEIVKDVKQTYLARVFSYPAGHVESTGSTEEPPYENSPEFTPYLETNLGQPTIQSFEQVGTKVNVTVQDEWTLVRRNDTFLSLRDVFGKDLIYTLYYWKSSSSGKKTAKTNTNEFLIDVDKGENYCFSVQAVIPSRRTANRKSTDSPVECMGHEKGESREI

B1: 22F11H5-hz1 (antibody, human IgG1, kappa, V domains shown)
VH: QVQLVQSGAEVKQPGASVKVSCKASGYTFTTYWMHWVRQAPGQGLEWMGMIDPSDSYTTYAQKFQGRVTLTVDTSTSTAYMELSSLRSEDTAVYYCARGSGPGLFAYWGQGTLVTVSS
VL: DIQETQSPSSLSASVGDRVTITCRASQDIRNYLNWYQQKPGKAPKLLIYHTSRLQSGVPSRFSGSGSGTDYTLTISSLQPEDFATYYCQQGNMPPYTFGQGTKVEIKR
notes: Humanized IgG1 kappa
B2: 27H8H3-hz1 (antibody, human IgG1, kappa, V domains shown)
VH: B1 VH with Q13K, T59S, A97T
VL: B1 VL with D28G, R30S, Q55H, G66V, Y71F, Y87F, M93T, P94L
notes: Humanized IgG1 kappa

Experiments:
cynomolgus monkey TF-His [1] = biological target: T1, cynomolgus monkey TF-His; test: ELISA, plate coated with c.TF-His
Experimental: (§1) The ELISA plate was coated overnight with TF antigen (h.TF-His or c.TF-His antigen) in 50 mM carbonate coating buffer (CBS coating solution) at a coating concentration of 1 μg/mL in a volume of 100 μL at 4° C. The next day, the coating solution was removed, each well was washed once with 300 μL of PBS, and 100 μL of 2% BSA (Biotopped, A6020) in PBS was added to each well for blocking at 37° C. for 2 h. The test sample was subjected to a gradient dilution with 2% BSA in PBS to establish 11 concentration points. 100 μL of each of the samples obtained by the gradient dilution was added to the plate, and the plate was incubated at 37° C. for 2 h. The supernatant was removed, and each well was washed three times with 300 μL of PBST. 100 μL of HRP-conjugated secondary antibody in 2% BSA was added to each well, and the plate was incubated at 37° C. for 1 h. […] At the end of the incubation, the secondary antibody was removed, each well was washed five times with 300 μL of PBST, and 100 μL of TMB substrate (Huzhou InnoReagents Co., Ltd., TMB-S-004) was added to each well for color development for 5-20 min. 50 μL of 2 N HCl was added to each well to stop the reaction, and OD450 nm values were read using a microplate reader (manufacturer: MD, model: SpectraMax) and imported into GraphPad software for fitting and plotting to determine the binding of the samples to TF antigenic proteins.
The assay was performed as described in the general methods. Briefly, an ELISA plate coated with a human TF-his protein or a cynomolgus monkey TF-his protein was blocked with 2% BSA at 37° C. for 2 h, and each of the antibodies obtained by the gradient dilution (starting at 10 μg/mL, 3-fold graded dilution, 11 concentration points) was added. The plate was incubated at 37° C. for 2 h.

human TF-His [2] = biological target: T2, human TF-His (human, UniProt P13726 33-251); test: antigenic protein-based ELISA on TF antigen (coating antigen not named, taken as human TF-His), antibody kept 14 days in human serum at 37 C
T2 construct: range 33-251; Recombinant extracellular segment expressed in HEK293-EBNA cells and purified on a nickel column; also called h.TF-His; h; TF-his; not shown: His tag from vector pTT5-His
Experimental: as §1, with “proteins. […]” for “proteins.”

human TF-His [3] = biological target: T2, human TF-His; test: BLI (ForteBio Octet), antibody on ProA sensor, TF-His as analyte
Experimental: (§2) The dynamic affinity of the humanized antibodies was determined by ForteBio. The experimental procedures were as follows: a ProA sensor (18-5010, Octet) was taken out and pre-wetted with a PBST diluent (pH 7.4) for 10 min. The antibodies to be immobilized were diluted to 5 μg/mL. […] The program was set up, the sensor plate and sample plate were put in, then the program started. The sensor was regenerated with 20 mM glycine solution (pH 1.7). The data were analyzed using Octet analysis software to derive a result graph.

cynomolgus monkey TF-His [4] = biological target: T1, cynomolgus monkey TF-His; test: as above
Experimental: as §2

Binder | EC50 (cynomolgus monkey TF-His [1]) | EC50 (read off the curve) (human TF-His [2]) | Kd (human TF-His [3]) | koff (human TF-His [3]) | kon (human TF-His [3]) | Kd (cynomolgus monkey TF-His [4]) | koff (cynomolgus monkey TF-His [4]) | kon (cynomolgus monkey TF-His [4])
B1 | 0.0114 µg/mL | ~0.03 µg/mL | 9.8 nM | 0.00296 s⁻¹ | 302000 M⁻¹ s⁻¹ | 12.7 nM | 0.00411 s⁻¹ | 324000 M⁻¹ s⁻¹
B2 | 0.0114 µg/mL | ~0.05 µg/mL | 42.5 nM | 0.0116 s⁻¹ | 273000 M⁻¹ s⁻¹ | 42.5 nM | 0.0125 s⁻¹ | 295000 M⁻¹ s⁻¹
